Laboratory results reported in PMC5408610, “Identification and characterization of a 20β-HSDH from the anaerobic gut bacterium Butyricicoccus desmolans ATCC 43058” (Journal of Lipid Research, 2017).

B1: 20β-HSDH (r20β-HSDH, desE) of B. desmolans ATCC 43058 (Agathobaculum desmolans ATCC 43058) (protein)
chain: MAEEFYAVYPKDAWKDPSYRLMDKFSLKGKKGFVTGGGGGIGRNTAAAWAEAGADVALVDIPASKDRLEPLAKEMSERYGVKVVPLYCDVSDEEQVNALKDDLIRELGTVDFAHINAGVCLMGDDVDVPYSTWKKVIDIDLNGAFMTAQVAQQIMREHNHGGSIIMTSSLSGYNANFIGGGPSPVCAYGTAKAGISQLARYMGAGLAPYGIRVNTISPGYIWSGIHEGVMDKAGHDMCLEVVPIKRFGRTDELQGVMLFLASEASSYITGINIPVDGGYSIF
notes: N-terminal Strep-tag from pET-51b(+), E. coli BL21-CodonPlus(DE3) RIPL

What was measured:
[1] = target: 20β-hydroxysteroid dehydrogenase (20β-HSDH) from Butyricicoccus desmolans ATCC 43058 (Butyricicoccus desmolans ATCC 43058); experiment: SEC; Superdex 200 analytical column, 4°C; 50 mM Tris-Cl, 300 mM NaCl, 10% glycerol, 10 mM 2-mercaptoethanol, 0.1% Triton X-100, pH 7.5; native mass from retention volume against standard proteins, divided by the subunit mass from SDS-PAGE
purified protein = substrate: C[C@]12CCC(=O)C=C1CC[C@@H]1[C@@H]2[C@@H](O)C[C@@]2(C)[C@H]1CC[C@]2(O)C(=O)CO; experiment: purified protein; type: biochemical, Agathobaculum desmolans; conditions: reductive direction, saturating NADH, 0.05 μM enzyme, standard assay 50 mM phosphate pH 7.5, temperature not stated for Km

| Molecule | stoichiometry N [1] | Km (purified protein) | Vmax (purified protein) |
| --- | --- | --- | --- |
| 20β-hydroxysteroid dehydrogenase (20β-HSDH) from Butyricicoccus desmolans ATCC 43058 (enzyme) | 3.96 | – | – |
| B1 | – | 0.80 ± 0.06 µM | 30.4 µmol/min |
